{"source": "patent US20100077492A1", "about": "(UNIVERSITY OF MASSACHUSETTS, published 2010)", "binders": {"B1": {"name": "^32P-labelled XPG-HMK (human XPG with a C-terminal heart muscle kinase recognition sequence tag) (enzyme)", "chain": "MGVQGLWKLLECSGRQVSPEALEGKILAVDISIWLNQALKGVRDRHGNSIENPHLLTLFHRLCKLLFFRIRPIFVFDGDAPLLKKQTLVKRRQRKDLASSDSRKTTEKLLKTFLKRQAIKTAFRSKRDEALPSLTQVRRENDLYVLPPLQEEEKHSSEEEDEKEWQERMNQKQALQEEFFHNPQAIDIESEDFSSLPPEVKHEILTDMKEFTKRRRTLFEAMPEESDDFSQYQLKGLLKKNYLNQHIEHVQKEMNQQHSGHIRRQYEDEGGFLKEVESRRVVSEDTSHYILIKGIQAKTVAEVDSESLPSSSKMHGMSFDVKSSPCEKLKTEKEPDATPPSPRTLLAMQAALLGSSSEEELESENRRQARGRNAPAAVDEGSISPRTLSAIKRALDDDEDVKVCAGDDVQTGGPGAEEMRINSSTENSDEGLKVRDGKGIPFTATLASSSVNSAEEHVASTNEGREPTDSVPKEQMSLVHVGTEAFPISDESMIKDRKDRLPLESAVVRHSDAPGLPNGRELTPASPTCTNSVSKNETHAEVLEQQNELCPYESKFDSSLLSSDDETKCKPNSASEVIGPVSLQETSSIVSVPSEAVDNVENVVSFNAKEHENFLETIQEQQTTESAGQDLISIPKAVEPMEIDSEESESDGSFIEVQSVISDEELQAEFPETSKPPSEQGEEELVGTREGEAPAESESLLRDNSERDDVDGEPQEAEKDAEDSLHEWQDINLEELETLESNLLAQQNSLKAQKQQQERIAATVTGQMFLESQELLRLFGIPYIQAPMEAEAQCAILDLTDQTSGTITDDSDIWLFGARHVYRNFFNKNKFVEYYQYVDFHNQLGLDRNKLINLAYLLGSDYTEGIPTVGCVTAMEILNEFPGHGLEPLLKFSEWWHEAQKNPKIRPNPHDTKVKKKLRTLQLTPGFPNPAVAEAYLKPVVDDSKGSFLWGKPDLDKIREFCQRYFGWNRTKTDESLFPVLKQLDAQQTQLRIDSFFRLAQQEKEDAKRIKSQRLNRAVTCMLRKEKEAAASEIEAVSVAMEKEFELLDKAKGKTQKRGITNTLEESSSLKRKRLSDSKGKNTCGGFLGETCLSESSDGSSSEDAESSSLMNVQRRTAAKEPKTSASDSQNSVKEAPVKNGGATTSSSSDSDDDGGKEKMVLVTARSVFGKKRRKLRRARGRKRKTRRASV", "modifications": "^32P-labeled at the heart muscle kinase (HMK) recognition tag RRASV", "notes": "The tagged form was used only in the far western and slot blot assays, as the labelled probe in solution; also called ^32P-labeled XPG with a heart muscle kinase (HMK) tag"}}, "key": {"[1]": {"biological_target": "T1, human PC4 protein (full length wild type) (human, UniProt P53999 1-127)", "T1 construct": "Full length wild type PC4 expressed in E. coli BL21(DE3) and purified by the methods of Ge et al; It was immobilised on the membrane, denatured after SDS-PAGE in the far western and native in the slot blot", "assay": "far western: ^32P-labelled XPG-HMK probe on PC4 transferred from SDS-PAGE", "description": "(§1) For “far western” analysis, human PC4 protein (1.5 μg), human Nth1 protein (2.1 μg) and E. coli EndoIII (3 μg) were separated on SDS-PAGE (pre-cast 4-20% gel, BioRad), transferred to a PVDF membrane, and stained with Ponceau S to visualize the proteins on the membrane. The membrane was then blocked with a blocking buffer (25 mM Hepes-KOH (pH 7.7), 25 mM NaCl, 5 mM MgCl₂, 1 mM DTT, 1% nonfat milk and 0.1% NP-40) for 2 hours at 4° C. and probed overnight at 4° C. on a rocker with blocking buffer containing 150 mM KCl and ³²P-labeled XPG with a heart muscle kinase (HMK) tag. The membrane was washed with washing buffer (25 mM Hepes-KOH (pH 7.7), 25 mM NaCl, 150 mM KCl, 5 mM MgCl2, 1 mM DTT, 1% nonfat milk and 0.5% NP-40), and interactions were visualized by both phosphorimager and autoradiography. For slot-blot analysis 1 μg each of PC4, hNth1 and EndoIII were applied to a nitrocellulose membrane, and the membrane was processed as above.\n(§2) Since Sub1 evidently functions in a pathway involving Rad2, we tested the possibility of direct interaction between the human PC4 and XPG proteins by “far western” analysis. To test PC4-XPG interaction, ³²P-labeled XPG was used as a probe for PC4 transferred onto a membrane from an SDS-PAGE gel. […]"}, "[2]": {"biological_target": "B1", "assay": "far western: ^32P-labelled XPG-HMK probe on proteins transferred from SDS-PAGE", "description": "as §1, §2"}}, "data": [{"binder": "B1", "values": [{"measurement": "binding result", "setting": "[1]", "result": "binds"}]}, {"binder": "E. coli Endo III (enzyme, UniProt P0AB83 1-211, looked up, Negative control, immobilised on the membrane) MNKAKRLEILTRLRENNPHPTTELNFSSPFELLIAVLLSAQATDVSVNKATAKLYPVANTPAAMLELGVEGVKTYIKTIGLYNSKAENIIKTCRILLEQHNGEVPEDRAALEALPGVGRKTANVVLNTAFGWPTIAVDTHIFRVCNRTQFAPGKNVEQVEEKLLKVVPAEFKVDCHHWLILHGRYTCIARKPRCGSCIIEDLCEYKEKVDI", "values": [{"measurement": "binding result", "setting": "[2]", "result": "no binding (tested: 3 µg EndoIII on the membrane)"}]}]}
